B1: FEM1B (parent)
chain: TLAALLLNRSESDIRYLLGYVSQQ
B2: SMG5 (parent)
chain: TNPDLIIVCAQSSQSLWNRLSVLL
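Further: lentivirally expressed fusions sorted by FACS into six bins by GFP to DsRed ratio, PSI derived from sequencing read proportions per bin multiplied by bin number.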

The variants in the first series derive from B1. In words: protein stability index of a GFP-peptide fusion (GPS, HEK-293T) (PSI 1-6); higher = more stable. Conditions: c terminus: a fixed tail appended.
Turning to TLAALLLNRSESDIRYLLGYVSQA, the protein stability index is 2.5.
Still for that read-out and setting: next, TLAALLLNRSESDIRYLLGYVSQY: 2.22; TLAALLLNRSESDIRYLLGYVSQE: 2.39; TLAALLLNRSESDIRYLLGYVSQP: 2.31.
Take TLAALLLNRSESDIRYLLGYVSQG: the protein stability index stood at 2.68.
Same read-out and setting: next, TLAALLLNRSESDIRYLLGYVSQT: 3.19; TLAALLLNRSESDIRYLLGYVSQK: 4.32.
Same read-out and setting: the figure for TLAALLLNRSESDIRYLLGYVSQD is 2.
On the same count and under the same terms, next, TLAALLLNRSESDIRYLLGYVSQF: 2.26.
For TLAALLLNRSESDIRYLLGYVSQH, the protein stability index stood at 2.75.
Regarding TLAALLLNRSESDIRYLLGYVSQI, the protein stability index came out at 3.41.
Consider TLAALLLNRSESDIRYLLGYVSQW, for which the protein stability index was 2.52.
For TLAALLLNRSESDIRYLLGYVSQN, the protein stability index came out at 2.6.
For TLAALLLNRSESDIRYLLGYVSQS, the protein stability index is 2.18.
On the same count and under the same terms, the figure for TLAALLLNRSESDIRYLLGYVSQC is 3.34; for TLAALLLNRSESDIRYLLGYVSQV it is 1.75.
The same measure, in the same setting: the figure for TLAALLLNRSESDIRYLLGYVSQM is 1.61; for TLAALLLNRSESDIRYLLGYVSKQ it is 2.87; for TLAALLLNRSESDIRYLLGYVSHQ it is 2.27.
On to TLAALLLNRSESDIRYLLGYVSMQ, for which the protein stability index came to 3.68.
In the case of TLAALLLNRSESDIRYLLGYVSLQ, the protein stability index came to 1.09.
The same measure, in the same setting: the figure for TLAALLLNRSESDIRYLLGYVSRQ is 2.6.
Consider TLAALLLNRSESDIRYLLGYVSPQ, for which the protein stability index was 1.36.
For TLAALLLNRSESDIRYLLGYVSVQ, the protein stability index is 2.77.
The same measure, in the same setting: next, TLAALLLNRSESDIRYLLGYVSSQ: 2.92; TLAALLLNRSESDIRYLLGYVSEQ: 3.21; TLAALLLNRSESDIRYLLGYVSCQ: 3.58.
On the same count and under the same terms, the figure for TLAALLLNRSESDIRYLLGYVSDQ is 2.67.
As to TLAALLLNRSESDIRYLLGYVSTQ, the protein stability index was determined as 3.07.
Still for that read-out and setting: next, TLAALLLNRSESDIRYLLGYVSYQ: 2.1.
Turning to TLAALLLNRSESDIRYLLGYVSFQ, the protein stability index stood at 2.3.
Same read-out and setting: the figure for TLAALLLNRSESDIRYLLGYVSIQ is 2.75.
As to TLAALLLNRSESDIRYLLGYVSGQ, the protein stability index was determined as 2.58.
Turning to TLAALLLNRSESDIRYLLGYVSNQ, the protein stability index came to 1.93.

Variants of B2 are the subject of a further series. The description is as above. The settings on record: c terminus: a fixed tail appended.
On to TNPDLIHVCAQSSQSLWNRLSVLL, for which the protein stability index worked out at 1.68.
Same read-out and setting: next, TNPDLIFVCAQSSQSLWNRLSVLL: 1.45.
Still for that read-out and setting: the figure for TNPDLITVCAQSSQSLWNRLSVLL is 1.66.
On to TNPDLIKVCAQSSQSLWNRLSVLL, for which the protein stability index is 1.71.
Same read-out and setting: the figure for TNPDLIPVCAQSSQSLWNRLSVLL is 2.41; for TNPDLILVCAQSSQSLWNRLSVLL it is 3.84; for TNPDLIRVCAQSSQSLWNRLSVLL it is 2.02.
For the variant TNPDLIVVCAQSSQSLWNRLSVLL, the protein stability index came to 1.1.
TNPDLINVCAQSSQSLWNRLSVLL: the protein stability index was found to be 1.64.
Same read-out and setting: next, TNPDLIGVCAQSSQSLWNRLSVLL: 2.55; TNPDLIWVCAQSSQSLWNRLSVLL: 4.05.
In the case of TNPDLICVCAQSSQSLWNRLSVLL, the protein stability index turned out to be 2.48.
Consider TNPDLISVCAQSSQSLWNRLSVLL, for which the protein stability index is 1.34.
Consider TNPDLIYVCAQSSQSLWNRLSVLL, for which the protein stability index came to 1.65.
Turning to TNPDLIAVCAQSSQSLWNRLSVLL, the protein stability index came out at 1.51.
In the case of TNPDLIMVCAQSSQSLWNRLSVLL, the protein stability index turned out to be 1.67.
Same read-out and setting: next, TNPDLIQVCAQSSQSLWNRLSVLL: 1.6.
Still for that read-out and setting: next, TNPDLIDVCAQSSQSLWNRLSVLL: 1.7.
Turning to TNPDLIEVCAQSSQSLWNRLSVLL, the protein stability index came to 2.25.
Consider TNPSLIIVCAQSSQSLWNRLSVLL, for which the protein stability index is 1.76.
For TNPALIIVCAQSSQSLWNRLSVLL, the protein stability index worked out at 1.33.
The same measure, in the same setting: next, TNPRLIIVCAQSSQSLWNRLSVLL: 1.94; TNPGLIIVCAQSSQSLWNRLSVLL: 1.65.
Regarding TNPVLIIVCAQSSQSLWNRLSVLL, the protein stability index was 1.67.
Same read-out and setting: next, TNPILIIVCAQSSQSLWNRLSVLL: 2.79; TNPKLIIVCAQSSQSLWNRLSVLL: 3.33.
For the variant TNPMLIIVCAQSSQSLWNRLSVLL, the protein stability index amounted to 4.85.
Take TNPPLIIVCAQSSQSLWNRLSVLL: the protein stability index stood at 1.95.
Still for that read-out and setting: the figure for TNPQLIIVCAQSSQSLWNRLSVLL is 2.18; for TNPFLIIVCAQSSQSLWNRLSVLL it is 1.71; for TNPHLIIVCAQSSQSLWNRLSVLL it is 3.73.
The same measure, in the same setting: the figure for TNPCLIIVCAQSSQSLWNRLSVLL is 1.05.
Still for that read-out and setting: next, TNPDLIIVEAQSSQSLWNRLSVLL: 1.72; TNPDLIIVTAQSSQSLWNRLSVLL: 1.95.
As for TNPDLIIVFAQSSQSLWNRLSVLL, the protein stability index is 2.64.
Same read-out and setting: the figure for TNPDLIIVPAQSSQSLWNRLSVLL is 1.92.
Turning to TNPDLIIVYAQSSQSLWNRLSVLL, the protein stability index worked out at 1.56.
Take TNPDLIIVVAQSSQSLWNRLSVLL: the protein stability index stood at 2.69.
The same measure, in the same setting: the figure for TNPDLIIVDAQSSQSLWNRLSVLL is 2.29.
Same read-out and setting: next, TNPDLIIVRAQSSQSLWNRLSVLL: 2.12.
As to TNPDLIIVWAQSSQSLWNRLSVLL, the protein stability index is 3.33.
As to TNPDLIIVQAQSSQSLWNRLSVLL, the protein stability index amounted to 2.09.
In the case of TNPDLIIVIAQSSQSLWNRLSVLL, the protein stability index is 2.72.
Still for that read-out and setting: next, TNPDLIIVAAQSSQSLWNRLSVLL: 2.28.
The same measure, in the same setting: next, TNPDLIIVHAQSSQSLWNRLSVLL: 1.64; TNPDLIIVSAQSSQSLWNRLSVLL: 3.03; TNPDLIIVGAQSSQSLWNRLSVLL: 1.45.
Consider TNPDLIIVKAQSSQSLWNRLSVLL, for which the protein stability index amounted to 1.98.
Same read-out and setting: the figure for TNPDLIIVMAQSSQSLWNRLSVLL is 1.76; for TNPDLIIVNAQSSQSLWNRLSVLL it is 2.35.
On the same count and under the same terms, next, TNPDLIIVLAQSSQSLWNRLSVLL: 3.72; VNPDLIIVCAQSSQSLWNRLSVLL: 2.84.
Still for that read-out and setting: next, HNPDLIIVCAQSSQSLWNRLSVLL: 2.44; WNPDLIIVCAQSSQSLWNRLSVLL: 2.35.
Regarding PNPDLIIVCAQSSQSLWNRLSVLL, the protein stability index was determined as 1.98.
Same read-out and setting: next, INPDLIIVCAQSSQSLWNRLSVLL: 3.34.
Regarding LNPDLIIVCAQSSQSLWNRLSVLL, the protein stability index was found to be 2.36.
With MNPDLIIVCAQSSQSLWNRLSVLL, the protein stability index is 2.97.
Turning to DNPDLIIVCAQSSQSLWNRLSVLL, the protein stability index worked out at 1.57.
In the case of QNPDLIIVCAQSSQSLWNRLSVLL, the protein stability index is 3.39.

The record behind these values is the supplement of paper PMC10567573.
